Measured values published in article PMC3342691 (Nature structural & molecular biology, 2011).

Target: Xenopus tropicalis tubulin tyrosine ligase (residues 2–377) (Xenopus tropicalis)
Experiment: AUC

VDSVEGEGEEEGEE [14-residue α–tubulin C-terminal peptide (VDSVEGEGEEEGEE)]
Kd: ~144 µM
